Assay results from publication PMC3591319 (PLoS Pathogens, 2013).

Assays:
[1] = target: gp41INT (soluble form of the fusion intermediate conformation of gp41) (not stated | HIV-1); assay: SPR; Biacore 3000; gp41INT or gp41 528-683 immobilised to 1000 RU on CM-5; VHH injected 1 to 200 nM for 150 s; 10 mM HEPES, 150 mM NaCl, pH 7.4, 50 uM EDTA, 0.005% P-20; 1:1 Langmuir fit, or separate association and dissociation fits for 2H10 and 2H10-W100A on gp41INT
[2] = target: gp140-92UG037 (recombinant Env gp140 of HIV-1 strain 92UG037) (HIV-1 clade A (92UG037))
[3] = target: gp140-92UG037 (recombinant Env gp140 of HIV-1 strain 92UG037) (HIV-1 clade A (92UG037)); assay: SPR; Biacore T100; gp140-92UG037 immobilised to 1500 RU on CM-5; VHH injected at 6.25, 25, 100 and 400 nM for 60 s; 10 mM HEPES, 150 mM NaCl, pH 7.4, 0.005% Tween-20; two-state reaction fit (2H10), heterogeneous ligand and two-state fits (bi-2H10)
[4] = target: gp140-92UG037 (recombinant Env gp140 of HIV-1 strain 92UG037) (HIV-1 clade A (92UG037)); assay: SPR; Biacore T100; gp140-92UG037 immobilised on CM-5; single concentration injections of 100 nM VHH for 60 s; two-state reaction fit
[5] = target: gp140-92UG037 (recombinant Env gp140 of HIV-1 strain 92UG037) (HIV-1 clade A (92UG037)); assay: SPR
[6] = target: gp41 528-683 (potential late fusion intermediate conformation of gp41) (HIV-1) (UniProt P04578); assay: SPR; Biacore 3000; […]; 10 mM HEPES, 150 mM NaCl, […]; 1:1 Langmuir fit, […]
[7] = target: T1, linear gp41 MPER peptide 655KNEQELLELDKWASL669 (HIV-1 clade B (HXB2 sequence)); assay: ITC; 25 C; 10 uM 2H10 in the cell, about 100 uM peptide in the syringe; 20 mM HEPES pH 7.4, 100 mM NaCl; single binding site model; conditions: both partners purified
T1 chain: KNEQELLELDKWASL

[8] = target: T2, gp41CHRTM (HIV-1 gp41 C-terminal heptad repeat, MPER and transmembrane regions) (HIV-1 clade B (HXB2), UniProt P04578); assay: ELISA; conditions: both partners purified
T2 construct: also called gp41 proteoliposomes; gp41CHRTM proteoliposomes

“2H10 (llama anti-gp41 MPER VHH, monovalent, myc/His-tagged)” was tested. Which Kd [1] did it give?
The Kd was 29 nM.

And the IC50 of neutralisation of HIV-1 92UG037.A9 (molecular clone) in TZM-bl cells [2]?
The IC50 of neutralisation of HIV-1 92UG037.A9 (molecular clone) in TZM-bl cells was > 50 µg/mL.

And the IC50 of neutralisation of pseudovirus 92UG0378 in TZM-bl cells [2]?
Its IC50 of neutralisation of pseudovirus 92UG0378 in TZM-bl cells is > 50 µg/mL.

And the Kd [3]?
The Kd was 4 nM.

And the Kd [4]?
Its Kd is 8 nM.

2H10-R71S (VHH) was tested. Which Kd [5] did it give?
Its Kd is 18.7 nM.

With 2H10-S29F (VHH) as the molecule, how does the Kd [5] read?
Its Kd is 5.5 nM.

Which Kd [5] does the source give for 2H10-W100A (VHH) here?
The Kd was 10.1 nM.

Which Kd [1] does the source give for “bi-2H10 with 15GS linker (bivalent 2H10) (VHH)” here?
Its Kd is 2.5 nM.

What about the IC50 of neutralisation of HIV-1 92UG037.A9 (molecular clone) in TZM-bl cells [2] of the same molecule?
The IC50 of neutralisation of HIV-1 92UG037.A9 (molecular clone) in TZM-bl cells was 2.4 µg/mL.

What about the IC50 of neutralisation of pseudovirus 92UG0378 in TZM-bl cells [2] of the same molecule?
Its IC50 of neutralisation of pseudovirus 92UG0378 in TZM-bl cells is 4.66 µg/mL.

And the Kd [3]?
The Kd was 0.15 nM.

And the Kd [6]?
The Kd was 1.1 nM.

For “bi-2H10 with 17GS linker (bivalent 2H10) (VHH)”, which IC50 of neutralisation of HIV-1 92UG037.A9 (molecular clone) in TZM-bl cells [2] is on record?
The IC50 of neutralisation of HIV-1 92UG037.A9 (molecular clone) in TZM-bl cells was 28 µg/mL.

B1: 2H10 (VHH without 6his-tag or myc tag) (VHH)
VHH: EVQLVESGGGLVQPGGSLRLSCAASGSISSVDVMSWYRQAPGKQRELVAFITDRGRTNYKVSVKGRFTISRDNSKNMVYLQMNSLKPEDTADYLCRAESRTSWSSPSPLDVWGRGTQVTVSS
B1 was tested. Which Kd [7] did it give?
The Kd was 35 nM.

B2: 2H10 (llama anti-gp41 MPER VHH, monovalent, myc/His-tagged) (VHH)
VHH: B1 VHH
notes: also called 2H10 monohead; VHH 2H10
Does B2 bind [8]?
Result: binds
